Experimental data reported in patent US20230302104.

B1: TMPRSS2 recombinant protein (creative biomart) (protein)
chain: WKFMGSKCSNSGIECDSSGTCINPSNWCDGVSHCPGGEDENRCVRLYGPNFILQVYSSQRKSWHPVCQDDWNENYGRAACRDMGYKNNFYSSQGIVDDSGSTSFMKLNTSAGNVDIYKKLYHSDACSSKAVVSLRCIACGVNLNSSRQSRIVGGESALPGAWPWQVSLHVQNVHVCGGSIITPEWIVTAAHCVEKPLNNPWHWTAFAGILRQSFMFYGAGYQVEKVISHPNYDSKTKNNDIALMKLQKPLTFNDLVKPVCLPNPGMMLQPEQLCWISGWGATEEKGKTSEVLNAAKVLLIETQRCNSRYVYDNLITPAMICAGFLQGNVDSCQGDSGGPLVTSKNNIWWLIGDTSWGSGCAKAYRPGVYGNVMVFTDWIYRQMRADG
B2: purified human neutrophil elastase (ELA2) (protein)
chain: IVGGRRARPHAWPFMVSLQLRGGHFCGATLIAPNFVMSAAHCVANVNVRAVRVVLGAHNLSRREPTRQVFAVQRIFENGYDPVNLLNDIVILQLNGSATINANVQVAQLPAQGRRLGNGVQCLAMGWGLLGRNRGIASVLQELNVTVVTSLCRRSNVCTLVRGRQAGVCFGDSGSPLVCNGLIHGIASFVRGGCASGLYPDAFAPVAQFVNWIDSIIQ

What was measured:
[1] = biological target: AAT (alpha1-antitrypsin; preparation not stated in Example 15), P01009
[2] = biological target: rhAAT (recombinant alpha1-antitrypsin, preparations not specified per panel)

Chain of AAT (alpha1-antitrypsin; preparation not stated in Example 15), P01009 (P01009 whole entry, looked up): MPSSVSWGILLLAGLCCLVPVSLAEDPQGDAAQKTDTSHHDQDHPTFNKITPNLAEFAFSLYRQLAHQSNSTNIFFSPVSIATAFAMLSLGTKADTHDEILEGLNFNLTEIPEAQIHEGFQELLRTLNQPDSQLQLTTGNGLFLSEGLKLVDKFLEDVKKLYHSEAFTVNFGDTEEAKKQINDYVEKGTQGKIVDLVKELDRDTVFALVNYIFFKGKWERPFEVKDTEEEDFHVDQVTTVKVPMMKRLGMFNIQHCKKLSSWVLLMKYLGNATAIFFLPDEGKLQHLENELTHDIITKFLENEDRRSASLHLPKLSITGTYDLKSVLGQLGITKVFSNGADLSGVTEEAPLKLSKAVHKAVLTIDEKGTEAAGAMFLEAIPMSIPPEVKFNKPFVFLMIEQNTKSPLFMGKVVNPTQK

Protein | TMPRSS2 protease activity (cleavage of Boc-QAR-AMC peptide, fluorescence, Vmax) [1] | neutrophil elastase protease activity, MeOSuc-AAPV-pNA substrate assay (Vmax, % of untreated); AAT at 1 nM and 10 nM [2]
B1 | AAT inhibits TMPRSS2 protease activity | –
B2 | – | AAT and rhAAT inhibits neutrophil elastase protease activity
